Experimental data: publication PMC8269367

Assays:
HMGN3 (Homo sapiens) = HMGN3 (Homo sapiens) (UniProt Q15651); test: MST; settings: 50 nM labelled protein, 0.61 nM-20 uM oligo, 140 mM potassium phosphate pH 7.2 (6.7 for i-motif N1-3; CTCF oligo CD at pH 6.7), 10 mM NaCl in oligo …
CTCF (Mus musculus) = biological target: T1, CTCF (Mus musculus) (UniProt Q61164); test: MST; settings: 50 nM labelled protein, 0.61 nM-20 uM oligo, 140 mM potassium phosphate pH 7.2 (6.7 for i-motif N1-3; CTCF oligo CD at pH 6.7), 10 mM NaCl in oligo …
T1 sequence: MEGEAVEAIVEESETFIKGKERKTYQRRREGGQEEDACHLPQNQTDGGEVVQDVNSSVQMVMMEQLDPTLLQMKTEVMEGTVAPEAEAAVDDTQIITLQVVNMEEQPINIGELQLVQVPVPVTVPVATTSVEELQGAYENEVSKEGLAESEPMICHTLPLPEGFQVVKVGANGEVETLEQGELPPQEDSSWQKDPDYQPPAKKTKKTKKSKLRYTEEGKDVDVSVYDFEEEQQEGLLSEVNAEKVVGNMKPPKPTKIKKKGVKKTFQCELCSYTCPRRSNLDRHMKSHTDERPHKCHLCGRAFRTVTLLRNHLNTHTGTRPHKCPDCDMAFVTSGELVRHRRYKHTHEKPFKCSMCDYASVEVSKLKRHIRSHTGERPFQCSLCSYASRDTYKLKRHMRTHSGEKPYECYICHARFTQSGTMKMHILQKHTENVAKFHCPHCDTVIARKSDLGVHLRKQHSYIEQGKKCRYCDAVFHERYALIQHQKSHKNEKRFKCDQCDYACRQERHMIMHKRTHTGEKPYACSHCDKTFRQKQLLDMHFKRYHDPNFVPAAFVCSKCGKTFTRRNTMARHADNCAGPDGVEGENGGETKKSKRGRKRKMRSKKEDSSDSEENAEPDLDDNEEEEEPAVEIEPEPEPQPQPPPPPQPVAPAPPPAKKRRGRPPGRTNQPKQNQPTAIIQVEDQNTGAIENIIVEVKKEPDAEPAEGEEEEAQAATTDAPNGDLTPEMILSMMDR

HMGN3 (Homo sapiens), sequence (Q15651 whole entry): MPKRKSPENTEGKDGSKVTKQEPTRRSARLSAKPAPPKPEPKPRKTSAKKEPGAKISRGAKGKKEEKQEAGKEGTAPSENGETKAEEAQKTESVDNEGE

AAAAAAAAAAAAAAAAAAAA [A20]
Kd (HMGN3 (Homo sapiens)): > 20000 nM

AAGGAAAAGAAAAAA (double strand) [N3-2/N3C-2]
Kd (HMGN3 (Homo sapiens)): > 20000 nM

CAATCGGATCGAATTCGATCCGATTG [hair (ds26)]
Kd (HMGN3 (Homo sapiens)): > 20000 nM

GGAGCAGGTGGGGAGCAGGCCGGAAGAGG [N3-M5]
Kd (HMGN3 (Homo sapiens)): > 20000 nM

GGGGACGAAGGGGGCGCGGTGCCTCCTGG [N3-M7]
Kd (HMGN3 (Homo sapiens)): 150 nM

GGGGCCAGTGGACGCGGGGAGCCTGCGGG [N3-M6]
Kd (HMGN3 (Homo sapiens)): > 10000 nM

GGGGGGCGGGGGGCGGGGGGGGGGG [BDN-G4]
Kd (CTCF (Mus musculus)): 120 nM

GGGGGTGGGGGGTGGGGGGAGGGGGG [SHA-G4]
Kd (CTCF (Mus musculus)): 70 nM

TTTTCTTCTTCTTTT (double strand) [N3-1/N3C-1]
Kd (HMGN3 (Homo sapiens)): > 20000 nM

TTTTTTTTTTTTTTTTTTTT [T20]
Kd (HMGN3 (Homo sapiens)): > 20000 nM

control CTCF duplex
Kd (CTCF (Mus musculus)): 80 nM
